# Measured values: the supplement of paper PMC9112550, “Optimization of the antimicrobial peptide Bac7 by deep mutational scanning” (BMC Biology, 2022)
# Tested on: Escherichia coli TOP10
# Test: shrunken log2 fold change of peptide-encoding DNA abundance (4.5 h post-induction vs induction); higher = less antimicrobial activity (less host growth inhibition)
# Settings: time post-induction: 4.5 h; library: site-saturation at positions 5, 18, 19, 20
# 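Further: peptides expressed intracellularly from a pBAD plasmid library in pooled LB shake-flask culture, induced with 0.3% L-arabinose, DNA abundance read by NGS, three biological replicates, DESeq2 with apeglm shrinkage.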
row,Sequence,shrunken log2 fold change
1,RRIRCRPPRLPRPRPRPRQYPRP,-0.15
2,RRIRGRPPRLPRPRPRPSYEPRP,0.0732
3,RRIRGRPPRLPRPRPRPCDTPRP,0.13
4,RRIRERPPRLPRPRPRPWTYPRP,-0.104
5,RRIRMRPPRLPRPRPRPDPEPRP,0.769
6,RRIRARPPRLPRPRPRPFRPPRP,0.153
7,RRIRVRPPRLPRPRPRPIYIPRP,-0.755
8,RRIRIRPPRLPRPRPRPKFNPRP,-1.09
9,RRIRVRPPRLPRPRPRPDDTPRP,-0.00824
10,RRIRYRPPRLPRPRPRPSGNPRP,-0.067
11,RRIRLRPPRLPRPRPRPFQPPRP,0.113
12,RRIRNRPPRLPRPRPRPHWGPRP,-0.0266
13,RRIRPRPPRLPRPRPRPMCQPRP,0.27
14,RRIRPRPPRLPRPRPRPRCEPRP,0.809
15,RRIRQRPPRLPRPRPRPMIDPRP,-0.517
16,RRIRARPPRLPRPRPRPIPMPRP,0.0374
17,RRIRWRPPRLPRPRPRPWVAPRP,0.191
18,RRIRQRPPRLPRPRPRPNHAPRP,-0.474
19,RRIRERPPRLPRPRPRPINSPRP,-0.157
20,RRIRARPPRLPRPRPRPGFSPRP,0.329
21,RRIRMRPPRLPRPRPRPTFYPRP,-0.157
22,RRIRQRPPRLPRPRPRPGQPPRP,0.385
23,RRIRYRPPRLPRPRPRPREHPRP,-0.00116
24,RRIRDRPPRLPRPRPRPVFHPRP,-0.707
25,RRIRFRPPRLPRPRPRPNFDPRP,-0.181

row,Sequence,shrunken log2 fold change
1,RRIRGRPPRLPRPRPRPTLDPRP,0.93
2,RRIRYRPPRLPRPRPRPEPGPRP,0.215
3,RRIRHRPPRLPRPRPRPCWSPRP,-0.166
4,RRIRSRPPRLPRPRPRPFCPPRP,-0.31
5,RRIRCRPPRLPRPRPRPESVPRP,0.025
6,RRIRQRPPRLPRPRPRPRISPRP,-0.176
7,RRIRSRPPRLPRPRPRPIPGPRP,-0.0336
8,RRIRIRPPRLPRPRPRPAHIPRP,-0.063
9,RRIRIRPPRLPRPRPRPQIYPRP,-1.08
10,RRIRDRPPRLPRPRPRPDVIPRP,0.00273
11,RRIRNRPPRLPRPRPRPMEVPRP,-0.052
12,RRIRKRPPRLPRPRPRPDRPPRP,0.0953
13,RRIRLRPPRLPRPRPRPYAWPRP,0.0863
14,RRIRKRPPRLPRPRPRPSIFPRP,-0.0205
15,RRIRNRPPRLPRPRPRPLQEPRP,-0.0474
16,RRIRHRPPRLPRPRPRPDIDPRP,-0.235
17,RRIRPRPPRLPRPRPRPDVEPRP,-0.0392
18,RRIRYRPPRLPRPRPRPWLGPRP,-0.0293
19,RRIRFRPPRLPRPRPRPNVNPRP,-0.375
20,RRIRTRPPRLPRPRPRPLIYPRP,-0.174
21,RRIRCRPPRLPRPRPRPSYMPRP,-0.646
22,RRIRPRPPRLPRPRPRPQKRPRP,0.151
23,RRIRSRPPRLPRPRPRPPQVPRP,-0.0457
24,RRIRRRPPRLPRPRPRPHSFPRP,0.199
25,RRIRWRPPRLPRPRPRPKQSPRP,0.698

row,Sequence,shrunken log2 fold change
1,RRIRERPPRLPRPRPRPQDCPRP,0.015
2,RRIRERPPRLPRPRPRPWCGPRP,-0.245
3,RRIRNRPPRLPRPRPRPGSEPRP,-0.24
4,RRIRERPPRLPRPRPRPTITPRP,-0.598
5,RRIRMRPPRLPRPRPRPQYEPRP,-0.148
6,RRIRNRPPRLPRPRPRPPNKPRP,0.125
7,RRIRSRPPRLPRPRPRPDIIPRP,-0.16
8,RRIRCRPPRLPRPRPRPPCSPRP,-0.315
9,RRIRHRPPRLPRPRPRPVKIPRP,-0.0352
10,RRIRTRPPRLPRPRPRPAEQPRP,0.0493
11,RRIRSRPPRLPRPRPRPTAFPRP,0.534
12,RRIRDRPPRLPRPRPRPEGYPRP,0.585
13,RRIRPRPPRLPRPRPRPIDHPRP,0.0529
14,RRIRNRPPRLPRPRPRPWKIPRP,0.089
15,RRIRYRPPRLPRPRPRPDPMPRP,-0.0159
16,RRIRSRPPRLPRPRPRPANTPRP,-0.268
17,RRIRHRPPRLPRPRPRPQVMPRP,-0.0437
18,RRIRYRPPRLPRPRPRPFAAPRP,-0.508
19,RRIRKRPPRLPRPRPRPLGAPRP,0.58
20,RRIRARPPRLPRPRPRPDTAPRP,0.147
21,RRIRCRPPRLPRPRPRPNMHPRP,-0.615
22,RRIRPRPPRLPRPRPRPAVRPRP,-0.246
23,RRIRGRPPRLPRPRPRPTIQPRP,0.54
24,RRIRIRPPRLPRPRPRPMQYPRP,-0.016
25,RRIRLRPPRLPRPRPRPQFIPRP,-0.433
